Reference: the supplement of paper PMC9170038

Test system: MS2 coat protein
Assay: apparent KD of MS2 coat protein; designed switch direction (-1 OFF switch, 1 ON switch): 1; higher = weaker reporter binding
Method in brief: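 Designed RNA switches sharing common flanks were transcribed on Illumina chips by stalled E. coli RNA polymerase. They were titrated with SNAP-549-labelled MS2 coat protein, from 0.7 or 1.5 nM doubling to 3 µM, in Tris-HCl pH 7.5 buffer with KCl, MgCl2, BSA, DTT, tRNA and Tween-20. Titrations ran without input, with 200 uM small-molecule ligand, or with an oligonucleotide input. The apparent KD of each design is the median over its clusters, after curve-fitting of normalised cluster fluorescence.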

[1] = Eterna round: R95, input ligand: FMN 200 uM
[2] = Eterna round: R95, input ligand: microRNA oligo, concentration not stated
[3] = Eterna round: R95, input ligand: none
[4] = input ligand: microRNA oligo, concentration not stated

| Sequence | apparent KD of MS2 coat protein [1] | apparent KD of MS2 coat protein [2] | apparent KD of MS2 coat protein [3] | apparent KD of MS2 coat protein (input ligand: FMN 200 uM) | apparent KD of MS2 coat protein [4] | apparent KD of MS2 coat protein (input ligand: none) |
| --- | --- | --- | --- | --- | --- | --- |
| AGUCCAGCCUGAGCUGGACAAAAGCAUGUACAUGAGGAUCACCCAUGUUCAUGUACAAGCUUUUUGCUCGUCUUACG [salish99_208a_r3_078] (puzzle: Sensor for hsa-mir-208a) | 673 nM | 17.1 nM | 638 nM | – | – | – |
| AGUCCAGCCUGAGCUGGACAAAAGCAUGUACAUGAGGAUCACCCAUGUUCAUGUACAAGCUUUUUGCUCGUCUUAUG [salish99_208a_r3_051] (puzzle: Sensor for hsa-mir-208a) | 1040 nM | 17 nM | 634 nM | – | – | – |
| AGUCCAGCCUGAGCUGGACAAAAGCAUGUACAUGAGGAUCACCCAUGUUCAUGUACAAGCUUUUUGCUCGUCUUGAA [salish99_208a_r3_095x] (Eterna round: R96, puzzle: Sensor for hsa-mir-208a) | – | – | – | 646 nM | 16.1 nM | 572 nM |
| AGUCCAGCCUGAGCUGGACAAAAGCAUGUACAUGAGGAUCACCCAUGUUCAUGUACAAGCUUUUUGCUCGUCUUGAA [salish99_208a_r3_095x] (puzzle: Sensor for hsa-mir-208a) | 710 nM | 13.5 nM | 817 nM | – | – | – |
| AGUCCAGCCUGAGCUGGACAAAGACAUGUACAUGAGGAUCACCCAUGUCAUGUACAAGUUUUUUGCUCGUCUUAUAA (puzzle: Sensor for hsa-mir-208a) | 36.7 nM | 12.5 nM | 44.1 nM | – | – | – |
| AGUCCAGCCUGAGCUGGACAAAGGCAUGUACAUGAGGAUCACCCAUGUCAUGUACAAGCUUUUUGCUCGUCUUAAUA [Zipper 49 - 1] (Eterna round: R96, puzzle: Sensor for hsa-mir-208a) | – | – | – | 211 nM | 12.6 nM | 178 nM |
| AGUCCAGCCUGAGCUGGACAAAGGCAUGUACAUGAGGAUCACCCAUGUCAUGUACAAGCUUUUUGCUCGUCUUAAUA [Zipper 49 - 1] (puzzle: Sensor for hsa-mir-208a) | 177 nM | 15 nM | 220 nM | – | – | – |
| AGUCCAGCCUGAGCUGGACAAAGGCAUGUACAUGAGGAUCACCCAUGUUCAUGUACAAGCUUUUUGCUCGUCUUAAA [Zipper 52 - 1] (puzzle: Sensor for hsa-mir-208a) | 140 nM | 11.4 nM | 181 nM | – | – | – |
| AGUCCAGCGAAAGCUGGACAAAAGUAUGUACAUGAGGAUCACCCAUGUUCAUGUACAAGCUUUUUGCUCGUCUUAAA [JL mod - D95 - 10] (puzzle: Sensor for hsa-mir-208a) | 578 nM | 20.3 nM | 620 nM | – | – | – |
| AGUCCUGAAAAGAAAAUAAAGAGAGAUGUACAUGAGGAUCACCCAUGUCAUGUACAAGUUCUAUGCUCGUCAUAUAA [Sensorship 23 - Jieux - Sensor for hsa-mir-208a] (puzzle: Sensor for hsa-mir-208a) | 913 nM | 113 nM | 1430 nM | – | – | – |
| AGUCCUGAAAGGAAAAUUAUAAGUGAUGUACAUGAGGAUCACCCAUGUCAUGUACAAGUUCUAUGCUCGUCUUAUAA [Sensorship 25 - Jieux - Sensor for hsa-mir-208a] (puzzle: Sensor for hsa-mir-208a) | 222 nM | 34.1 nM | 216 nM | – | – | – |
| AGUCCUGAAUAAAUUAAACAGAGACAUGUACAUGAGGAUCACCCAUGUCAUGUGCAAGUUUUAUGCUCGUCAUAUAA [Sensorship 18 - Jieux - Sensor for hsa-mir-208a] (puzzle: Sensor for hsa-mir-208a) | 13 nM | 8.35 nM | 12.8 nM | – | – | – |
| AGUCUACGGUGACGUAGACAGUGGUGCGUACAUGAGGAUCACCCAUGUCAUGUGAGAGUUACUUGUUCGUCUUGAGC [SENSOR #4] (puzzle: Sensor for hsa-mir-208a) | 20.7 nM | 21.7 nM | 22.6 nM | – | – | – |
